Experimental data taken from patent publication US20240376151A1, “STAPLED PEPTIDES AND METHODS THEREOF” (FOG PHARMACEUTICALS, INC., priority 2022, published 2024).

Target: T1, RNF31 PUB domain (Homo sapiens, UniProt Q96EP0)
T1 construct: MBP-TEV (N, cleaved yes); made in house; host or cells: E. coli BL21 (DE3) pLysS
T1 sequence (Q96EP0 1-179): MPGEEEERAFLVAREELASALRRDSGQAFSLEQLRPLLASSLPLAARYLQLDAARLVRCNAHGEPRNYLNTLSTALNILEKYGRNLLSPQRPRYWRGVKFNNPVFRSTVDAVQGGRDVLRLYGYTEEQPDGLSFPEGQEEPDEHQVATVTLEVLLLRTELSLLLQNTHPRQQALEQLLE
Assay: Phage Library Screening with NGS, RNF31 PUB domain
Assay type: binding
Details: for Phage library screen NGS readout, Target Concentration 10 / Phage library screen NGS readout, Target Concentration 30 / Phage library screen NGS readout, Target Concentration 100 / Phage library screen NGS readout, Target Concentration 300 / Phage library screen NGS readout, Target Concentration 1000: RNF31 PUB domain clusters C41-C45; for Phage library screen NGS readout, BLANK: clusters C41-C45

[1] = target concentration 1000, first column
[2] = target concentration 1000, second column

Phage library screen NGS readout, Target Concentration 10 | Phage library screen NGS readout, Target Concentration 30 | Phage library screen NGS readout, Target Concentration 100 | Phage library screen NGS readout, Target Concentration 300 | Phage library screen NGS readout, Target Concentration 1000 [1] | Phage library screen NGS readout, Target Concentration 1000 [2] | Phage library screen NGS readout, BLANK (column 1 of 5) | Phage library screen NGS readout, BLANK (column 2 of 5) | Phage library screen NGS readout, BLANK (column 3 of 5) | Phage library screen NGS readout, BLANK (column 4 of 5) | Phage library screen NGS readout, BLANK (column 5 of 5) | Sequence
0 | 0 | 0 | 4 | 10 | 13 | 0 | 0 | 0 | 0 | 0 | DPASHMCLEAAVMCTYD
0 | 0 | 0 | 2 | 7 | 5 | 0 | 0 | 0 | 0 | 0 | DPATEACFDAAIECTYY
0 | 1 | 0 | 2 | 6 | 6 | 0 | 0 | 0 | 0 | 4 | DPATWWCLYAAEDCVNI
0 | 0 | 0 | 4 | 15 | 11 | 0 | 0 | 0 | 2 | 0 | DPAVVDCWDAAVQCTYY
2 | 0 | 1 | 8 | 46 | 29 | 0 | 1 | 0 | 0 | 1 | DPAWDYCMYAAYDCNHS
0 | 1 | 0 | 2 | 10 | 15 | 0 | 4 | 0 | 0 | 0 | DPAWEHCLYAAYDCTHE
0 | 1 | 0 | 2 | 14 | 5 | 0 | 0 | 0 | 0 | 0 | DPAWESCMYAAYDCDNE
0 | 0 | 0 | 2 | 12 | 5 | 0 | 0 | 0 | 0 | 0 | DPAWEWCLYAAAECIED
1 | 1 | 1 | 3 | 6 | 4 | 1 | 1 | 1 | 0 | 2 | DPAWLDCIYAAYDCVTD
2 | 2 | 0 | 9 | 29 | 24 | 1 | 1 | 1 | 0 | 0 | DPAWMDCLYAAYDCQHM
0 | 0 | 0 | 4 | 6 | 5 | 0 | 0 | 0 | 0 | 0 | DPAWMQCMYAAWDCNIE
1 | 1 | 1 | 3 | 11 | 1 | 2 | 1 | 1 | 0 | 0 | DPAWNDCLYAAETCISW
0 | 0 | 0 | 3 | 13 | 8 | 0 | 0 | 1 | 4 | 0 | DPAWQECVIAALVCDTY
0 | 0 | 0 | 0 | 8 | 4 | 0 | 0 | 0 | 0 | 0 | DPAWTDCDWAALYCDES
1 | 0 | 0 | 0 | 6 | 6 | 0 | 0 | 0 | 1 | 0 | DPAWTDCDWAALYCEFQ
0 | 1 | 0 | 1 | 7 | 10 | 0 | 0 | 0 | 0 | 0 | DPAWTQCDWAALYCEDQ
0 | 0 | 0 | 3 | 12 | 2 | 2 | 0 | 0 | 0 | 0 | DPAWWDCMYAASHCDTV
0 | 0 | 0 | 3 | 13 | 6 | 0 | 0 | 1 | 0 | 0 | DPAWWNCLYAADECWSW
